From patent publication US20110086768A1

Molecular target: FLAG-transferrin fusion (pREX1235): modified transferrin (mTf) with a FLAG Tag at the N-terminus and the human GPI sequence at the C-terminus, expressed in HEK-293 cells (human) (UniProt P02787)
Assay: FACS of transfected HEK-293 cells with mouse anti-FLAG BioM2 and goat anti-mouse-APC

Chain of UniProt P02787 (P02787 other isoform, or with tags, fused parts or gaps limits assumed): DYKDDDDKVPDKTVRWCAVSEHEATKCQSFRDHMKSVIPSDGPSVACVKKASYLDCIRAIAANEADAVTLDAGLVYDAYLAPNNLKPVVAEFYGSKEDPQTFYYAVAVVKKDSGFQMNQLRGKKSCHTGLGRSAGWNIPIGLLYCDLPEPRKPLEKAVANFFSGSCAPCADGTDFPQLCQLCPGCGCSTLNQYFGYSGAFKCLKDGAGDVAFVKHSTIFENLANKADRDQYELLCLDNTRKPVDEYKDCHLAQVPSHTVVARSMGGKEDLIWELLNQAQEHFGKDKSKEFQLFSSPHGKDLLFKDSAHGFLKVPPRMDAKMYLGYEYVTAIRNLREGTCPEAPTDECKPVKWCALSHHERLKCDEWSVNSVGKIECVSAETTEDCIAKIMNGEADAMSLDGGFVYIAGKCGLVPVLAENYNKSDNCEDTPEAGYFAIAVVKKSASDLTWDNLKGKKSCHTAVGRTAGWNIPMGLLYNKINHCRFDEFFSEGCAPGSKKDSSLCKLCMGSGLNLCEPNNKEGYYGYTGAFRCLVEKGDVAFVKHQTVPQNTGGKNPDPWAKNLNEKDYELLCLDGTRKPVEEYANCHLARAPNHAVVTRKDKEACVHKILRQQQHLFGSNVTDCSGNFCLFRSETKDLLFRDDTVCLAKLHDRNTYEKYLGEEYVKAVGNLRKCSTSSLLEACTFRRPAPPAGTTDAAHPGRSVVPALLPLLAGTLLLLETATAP

## mouse anti-FLAG BioM2 (Sigma) (antibody)
  fold increase in staining relative to mock-transfected cells: 4 fold
